Biological target: myh9_human MYH9 (UniProt P35579)
Sequence (P35579 whole entry): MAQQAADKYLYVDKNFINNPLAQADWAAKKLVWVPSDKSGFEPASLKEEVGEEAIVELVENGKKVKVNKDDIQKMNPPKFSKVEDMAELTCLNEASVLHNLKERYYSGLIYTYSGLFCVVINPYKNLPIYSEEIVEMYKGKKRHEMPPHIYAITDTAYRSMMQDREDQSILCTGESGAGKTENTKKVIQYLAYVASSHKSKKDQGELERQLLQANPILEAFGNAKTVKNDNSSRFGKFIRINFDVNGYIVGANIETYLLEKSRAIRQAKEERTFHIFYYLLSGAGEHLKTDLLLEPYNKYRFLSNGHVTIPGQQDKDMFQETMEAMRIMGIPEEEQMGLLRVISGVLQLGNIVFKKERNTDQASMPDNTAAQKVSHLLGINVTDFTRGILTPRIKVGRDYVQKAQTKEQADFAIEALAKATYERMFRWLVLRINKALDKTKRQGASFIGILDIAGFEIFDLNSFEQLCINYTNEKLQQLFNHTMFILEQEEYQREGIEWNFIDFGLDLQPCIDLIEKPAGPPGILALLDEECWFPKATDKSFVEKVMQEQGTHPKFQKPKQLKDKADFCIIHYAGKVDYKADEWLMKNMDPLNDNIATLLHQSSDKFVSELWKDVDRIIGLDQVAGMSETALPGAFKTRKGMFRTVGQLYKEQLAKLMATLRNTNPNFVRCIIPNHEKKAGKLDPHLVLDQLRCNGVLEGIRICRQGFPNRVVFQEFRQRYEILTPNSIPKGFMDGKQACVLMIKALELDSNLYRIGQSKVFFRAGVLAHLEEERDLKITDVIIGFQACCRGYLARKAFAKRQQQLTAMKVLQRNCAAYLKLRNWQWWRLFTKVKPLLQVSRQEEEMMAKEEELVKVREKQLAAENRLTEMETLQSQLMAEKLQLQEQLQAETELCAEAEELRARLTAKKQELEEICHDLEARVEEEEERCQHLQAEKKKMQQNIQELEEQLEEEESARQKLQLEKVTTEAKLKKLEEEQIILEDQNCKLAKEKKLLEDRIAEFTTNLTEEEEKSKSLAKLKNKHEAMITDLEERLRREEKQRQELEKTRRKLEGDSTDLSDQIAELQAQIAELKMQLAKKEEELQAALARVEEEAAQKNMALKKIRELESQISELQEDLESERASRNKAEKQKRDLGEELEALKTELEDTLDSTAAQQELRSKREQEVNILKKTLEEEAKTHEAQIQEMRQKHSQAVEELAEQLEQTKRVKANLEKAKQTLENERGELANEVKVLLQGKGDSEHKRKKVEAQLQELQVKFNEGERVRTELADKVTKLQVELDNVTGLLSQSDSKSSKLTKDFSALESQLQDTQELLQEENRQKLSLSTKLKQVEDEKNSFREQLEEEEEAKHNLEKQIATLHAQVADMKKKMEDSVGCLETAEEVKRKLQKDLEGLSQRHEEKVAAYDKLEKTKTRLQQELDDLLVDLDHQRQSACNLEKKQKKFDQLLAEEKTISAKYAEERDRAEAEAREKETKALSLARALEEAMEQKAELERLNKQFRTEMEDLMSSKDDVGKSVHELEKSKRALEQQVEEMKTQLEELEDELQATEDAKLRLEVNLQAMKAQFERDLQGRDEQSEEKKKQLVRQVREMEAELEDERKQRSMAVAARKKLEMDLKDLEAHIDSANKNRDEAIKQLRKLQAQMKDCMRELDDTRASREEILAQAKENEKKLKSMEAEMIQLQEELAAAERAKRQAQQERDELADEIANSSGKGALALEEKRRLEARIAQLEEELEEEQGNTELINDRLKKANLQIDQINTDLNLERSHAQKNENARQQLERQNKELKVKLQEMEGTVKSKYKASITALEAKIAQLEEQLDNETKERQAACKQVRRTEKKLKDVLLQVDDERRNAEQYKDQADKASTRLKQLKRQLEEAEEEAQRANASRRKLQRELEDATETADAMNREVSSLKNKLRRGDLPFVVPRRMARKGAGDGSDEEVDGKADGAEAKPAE

Sequence of Protein S100-A4 (Homo sapiens), P26447 C81D (P26447 whole entry C81D): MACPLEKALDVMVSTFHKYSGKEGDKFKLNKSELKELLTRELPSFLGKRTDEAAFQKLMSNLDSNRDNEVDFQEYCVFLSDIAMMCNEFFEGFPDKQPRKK

effect of a mutation on the interaction | Substance
disrupting interaction strength | Protein S100-A4 (Homo sapiens), P26447 C81D
disrupting interaction strength | Protein S100-A4 (Homo sapiens), P26447 V77D
